Measurements from US20200165313A1, “EGF(A) ANALOGUES, PREPARATION, FORMULATIONS AND USES THEREOF” (Novo Nordisk A/S, priority 2017, published 2020).

Biological target: hPCSK9 (Sino Biologicals, China) (human) (UniProt Q8NBP7)
Test: cell-based or functional assay

hepatic LDL-R expression, Percentage of baseline (%), mouse hPCSK9 challenge, inhibitor 22 nmol/kg: 157%
Substance: Alirocumab (antibody)
